In the MegaScale stability set (Tsuboyama et al. 2023):

B1: 2M8U (parent)
chain: TKAQVIEAFKVFDRDGNGYVTVDYLRKVLNELGDMMPADEIEEMIYEADPQNSGYVQYETFVGMLFL

Variants of: B1
Assay: folding stability dG (cDNA display proteolysis); higher = more stable
Conditions: PBS, room temperature

Variant | folding stability dG [kcal/mol]
M36G | 3.48
M36R | 3.6
M36H | 3.99
M36S | 3.41
M36F | 4.23
M36K | 3.66
M36P | 3.63
M36I | 3.75
M36A | 3.8
M36T | 3.65
M36Q | 3.19
M36C | 3.44
M36N | 3.34
M36V | 3.81
M36L | 3.72
M36Y | 3.57
M36W | 4.42
M36D | 2.72
M36E | 2.77
K27Y | 3.43
K27S | 3.2
K27D | 2.89
K27V | 3.62
K27M | 3.55

Variant | folding stability dG [kcal/mol]
K27A | 3.38
K27T | 3.26
K27G | 2.92
K27C | 3.05
K27N | 3.12
K27Q | 3.53
K27R | 3.48
K27L | 3.72
K27F | 3.58
K27H | 3.44
K27I | 3.66
K27P | 2.04
K27W | 3.42
K27E | 3.28
L32D | 1.84
L32V | 3.26
L32F | 3.66
L32P | 1.83
L32H | 2.96
L32R | 2.6
L32C | 2.76
L32M | 3.21
L32A | 2.77
L32I | 3.52

Variant | folding stability dG [kcal/mol]
L32W | 3.33
L32K | 2.5
L32E | 2.04
L32T | 2.55
L32S | 2.56
L32Q | 2.62
L32G | 2.16
L32Y | 3.28
L32N | 2.53
P37M | 3.3
P37L | 3.45
P37K | 3.7
P37F | 3.57
P37C | 3.49
P37R | 3.45
P37N | 3.6
P37T | 3.32
P37A | 3.1
P37Y | 3.44
P37D | 3.26
P37I | 3.41
P37E | 3.34
P37S | 3.33
P37Q | 3.43

Variant | folding stability dG [kcal/mol]
P37H | 3.46
P37G | 3.36
P37V | 3.34
P37W | 3.79
L25Y | 1.83
L25F | 2.91
L25A | 3.2
L25P | 1.25
L25M | 2.69
L25S | 1.72
L25C | 2.88
L25G | 1.92
L25V | 3.01
L25E | 2.09
L25Q | 2.02
L25T | 2.65
L25N | 1.47
L25R | 2.26
L25W | 2.53
L25D | 1.27
L25I | 3.14
L25K | 2.23
L25H | 1.16
L29A | 2.57

Variant | folding stability dG [kcal/mol]
L29C | 3.16
L29G | 1.58
L29K | 1.33
L29S | 2.06
L29M | 3.58
L29I | 3.53
L29W | 2.91
L29H | 1.67
L29Q | 1.4
L29Y | 2.22
L29F | 3.2
L29D | 0.756
L29R | 1.52
L29V | 3.28
L29P | 1.19
L29E | 1.12
L29T | 2.46
L29N | 1.86
G33C | 3.87
G33R | 3.51
G33Q | 3.37
G33M | 4.14
G33H | 3.25
G33I | 4.07

Variant | folding stability dG [kcal/mol]
G33T | 3.81
G33W | 3.55
G33P | 3.54
G33N | 3.18
G33K | 3.46
G33D | 3.25
G33V | 3.83
G33S | 3.28
G33E | 3.48
G33A | 3.79
G33L | 3.89
G33F | 3.94
G33Y | 3.48
D39T | 3.66
D39G | 3.77
D39S | 3.52
D39L | 3.89
D39A | 3.7
D39F | 4.09
D39R | 3.75
D39I | 3.83
D39C | 3.74
D39Q | 3.59
D39P | 3.68

Variant | folding stability dG [kcal/mol]
D39K | 3.79
D39N | 3.68
D39H | 3.71
D39E | 3.59
D39M | 3.92
N30K | 3.59
N30M | 3.63
N30E | 3.4
N30C | 3.37
N30A | 3.62
N30D | 3.72
N30L | 3.64
N30H | 3.52
N30P | 2.6
N30R | 3.54
N30F | 3.65
N30W | 3.71
N30I | 3.36
N30T | 3.44
N30S | 3.63
N30Y | 3.57
N30Q | 3.4
N30G | 3.6
N30V | 3.38

Variant | folding stability dG [kcal/mol]
D23Q | 3.65
D23V | 3.54
D23A | 3.58
D23P | 3.44
D23F | 4.04
D23L | 3.63
D23S | 3.55
D23C | 3.67
D23Y | 4.04
D23R | 3.33
D23M | 3.5
D23I | 3.63
D23H | 3.84
D23T | 3.65
D23K | 3.64
D23N | 3.45
D23E | 3.74
D23G | 3.56
D23W | 3.66
D34H | 3.53
D34K | 3.43
D34R | 3.51
D34S | 3.32
D34G | 3.42

Variant | folding stability dG [kcal/mol]
D34C | 4.32
D34L | 4.44
D34P | 3.89
D34Y | 4.42
D34I | 4.72
D34N | 3.58
D34F | 4.68
D34E | 3.77
D34M | 4.24
D34Q | 3.79
D34A | 3.54
D34W | 4.49
D34T | 3.51
D34V | 4.2
A38Q | 3.69
A38C | 3.52
A38Y | 3.5
A38M | 3.76
A38K | 3.69
A38R | 3.62
A38N | 3.45
A38I | 3.69
A38V | 3.61
A38F | 3.53

Variant | folding stability dG [kcal/mol]
A38S | 3.56
A38E | 3.43
A38T | 3.6
A38L | 3.59
A38D | 3.32
A38H | 3.57
A38W | 4
A38G | 3.41
A38P | 3.47
V22K | 3.3
V22N | 2.76
V22W | 3.11
V22I | 3.48
V22Y | 3.44
V22L | 3.49
V22S | 3.02
V22M | 3
V22P | 2.22
V22R | 3.59
V22H | 3.5
V22G | 2.36
V22T | 3.19
V22Q | 2.95
E31I | 3.66

Variant | folding stability dG [kcal/mol]
E31L | 3.81
E31T | 3.58
E31M | 3.74
E31F | 3.53
E31K | 3.49
E31C | 3.41
E31S | 3.64
E31P | 2.78
E31A | 3.47
E31Y | 3.4
E31G | 3.4
E31V | 3.49
E31R | 3.51
E31Q | 3.53
E31H | 3.45
E31N | 3.36
E31D | 3.62
E31W | 3.64
R26V | 3.11
R26E | 2.14
R26D | 1.78
R26F | 3.31
R26C | 2.88
R26W | 3.63

Variant | folding stability dG [kcal/mol]
R26G | 1.92
R26K | 3.37
R26S | 2.42
R26A | 2.49
R26Q | 2.72
R26Y | 3.53
R26L | 3.38
R26P | 1.55
R26H | 3.19
R26T | 2.57
R26M | 3.44
R26N | 2.59
R26I | 3.22
Y24E | 4.23
Y24I | 4.54
Y24C | 4.02
Y24L | 4
Y24R | 3.94
Y24N | 4.5
Y24D | 4.63
Y24F | 3.51
Y24H | 4.05
Y24T | 4.42
Y24M | 4.04

Variant | folding stability dG [kcal/mol]
Y24S | 4.27
Y24P | 1.24
Y24V | 4.38
Y24W | 3.24
Y24A | 4.19
Y24K | 3.82
Y24G | 3.47
Y24Q | 4.33
M35E | 2.98
M35R | 3.02
M35G | 2.95
M35D | 2.96
M35L | 3.68
M35H | 3.01
M35I | 3.69
M35S | 3.07
M35W | 3.6
M35P | 3.12
M35A | 3.09
M35C | 3.25
M35Q | 3.09
M35V | 3.38
M35N | 2.96
M35T | 3.14

Variant | folding stability dG [kcal/mol]
M35F | 3.9
M35K | 3.16
M35Y | 3.33
V28Q | 2.25
V28N | 1.84
V28G | 2.32
V28Y | 2.78
V28R | 2.41
V28W | 2.77
V28D | 0.754
V28E | 1.63
V28C | 2.6
V28M | 2.65
V28S | 2.18
V28T | 2.76
V28P | 1.37
V28I | 3.32
V28A | 2.63
V28K | 2.47
V28H | 2.17
V28L | 2.71
V28F | 2.86
